Assays:
Assay in all cases: purified protein
[1] = test system: CCCCCCCC(=O)Oc1ccc([N+](=O)[O-])cc1; conditions: 20 mM Tris-HCl pH 8.0, RT, 40 nM enzyme
[2] = test system: CC(=O)Oc1ccc([N+](=O)[O-])cc1; conditions: 20 mM Tris-HCl pH 8.0, RT, 40 nM enzyme
[3] = test system: O=C(Cc1cccs1)N[C@@H]1C(=O)N2C(C(=O)O)=C(/C=C/c3ccc([N+](=O)[O-])cc3[N+](=O)[O-])CS[C@H]12; conditions: 20 mM Tris-HCl pH 8.0, RT, 15 μM enzyme

CcEstA (Caulobacter vibrioides NA1000) showed a Km [1] of 43.4 ± 3.15 µM, a kcat [1] of 4.03 ± 0.29 s⁻¹ and a Km [2] of 51.9 ± 2.44 µM. The kcat [2] was 15.2 ± 2.19 s⁻¹, the Km [3] was 1348 µM and the kcat [3] was 0.00807 s⁻¹.

Source: publication PMC5131357, “Biochemical and Structural Analysis of a Novel Esterase from Caulobacter crescentus related to Penicillin-Binding Protein (PBP)” (Scientific Reports, 2016)
